Reference: paper PMC10514967, “The terpene synthase (TPS) gene family in kiwifruit shows high functional redundancy and a subset of TPS likely fulfil overlapping functions in fruit flavour, floral bouquet and defence” (Molecular Horticulture, 2023)

Experiments:
[1] = system: AcLIS/NES; assay: SPME GC-MS of major terpene product, Michaelis-Menten fit; type: biochemical, Actinidia chinensis var. chinensis; conditions: 50 mM Bis-Tris propane pH 7.5, 10 mM MgCl2, 30 °C
From the text: SPME GC-MS of major terpene product, Michaelis-Menten fit on AcLIS/NES

[2] = substrate: CC(C)=CCC/C(C)=C/CC/C(C)=C/CO[P@@](=O)(O)OP(=O)(O)O; assay: as above; type: biochemical, Actinidia chinensis; conditions: 50 mM Bis-Tris propane pH 7.5, 10 mM MgCl2, 30 °C
From the text: SPME GC-MS of major terpene product, Michaelis-Menten fit on AcBCS

Row | Km [1] [µM] | Molecule | Km [2] [µM] | Vmax [2] [µM/min] | kcat [2] [s⁻¹] | kcat/Km [2] [M⁻¹ s⁻¹]
1 | 30.9 ± 3.81 | CC(C)=CCC/C(C)=C/COP(=O)(O)OP(=O)(O)O [GDP] | – | – | – | –
2 | 7.43 ± 1.25 | CC(C)=CCC/C(C)=C/CC/C(C)=C/COP(=O)(O)OP(=O)(O)O [FDP] | – | – | – | –
3 | – | AcBCS (Actinidia chinensis var. chinensis) (protein) MAISCATALPIPTVSTKITMEPLVTRRSANYHPSIWGDHFLAYSSLPTEVDVNMEQEQLHQLKQKVIKMLMAAADKPSQMLNLIDRIQRLGVSYHFKTEIEAALKHIYESDHHFDDLYTVALFFRLLRQQGFPVSCEVFNKFKNNQGKFQECLIGDVVGILCLYEATHLRVRGEEILDEALSFTTTHLESMVPNLSNPVAEHAIHALNQPIHKGLTRLDARQYISFYEQDDSHNKDLLNFAKLDFNLLQKLHQRELCEITRWWKDLDFAKKLPFARDRLVESYFWVLGVYFEPQYWLARRILTKVIAMSSVIDDIYDVYGTLEELALFTDAIERWEISSLDKLPEYMKLCYQALLDIYSTIDEEMAKQGGSYRVYYAKSEMKNLVRGYFEEAKWFHQGYVPSMEEYMQVALLSSGYKMVTTTSFVGMGELATKEAFDWVSSYPLIVEAVSAIARLTDDIVGHKFEQQRGHVASAVECYMKQNGATEEEAIVELYEQVTNAWKDMNAECLYSTKVPMPLLVRVLNLARVINVLYKDEDSYTHSGTRTKNFVTSVLIDSVPIN | 1.54 ± 0.54 | 0.013 | 0.0087 ± 0.002 | 5870 ± 1100
